Positions of bridges follow the written chain, without caps; N, C: chain ends. Non-standard residues stand in square brackets, D forms with d. hCha = N[C@@H](CCC1CCCCC1)C(=O)O; hPhe = N[C@@H](CCc1ccccc1)C(=O)O; R8 = C=CCCCCCC[C@@](C)(N)C(=O)O; αMeD = C[C@](N)(CC(=O)O)C(=O)O; S5 = C=CCCC[C@](C)(N)C(=O)O
Columns and labels:
Assay in all cases: Ki table, method not stated
BCL-XL = BCL-XL (UniProt Q07817 1-209)
BCL-2 = BCL-2 (UniProt P10415 1-217, limits assumed)
MCL-1 = molecular target: T1, MCL-1 (UniProt Q07820 172-327, limits assumed)
T1 construct: also called Myeloid cell leukemia 1
T1 sequence (Q07820 172-327 limits assumed): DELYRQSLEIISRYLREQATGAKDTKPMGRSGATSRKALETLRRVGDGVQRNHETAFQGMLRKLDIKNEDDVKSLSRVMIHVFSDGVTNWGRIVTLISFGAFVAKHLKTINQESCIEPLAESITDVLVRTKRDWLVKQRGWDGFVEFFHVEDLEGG

Sequence of BCL-XL (Q07817 1-209): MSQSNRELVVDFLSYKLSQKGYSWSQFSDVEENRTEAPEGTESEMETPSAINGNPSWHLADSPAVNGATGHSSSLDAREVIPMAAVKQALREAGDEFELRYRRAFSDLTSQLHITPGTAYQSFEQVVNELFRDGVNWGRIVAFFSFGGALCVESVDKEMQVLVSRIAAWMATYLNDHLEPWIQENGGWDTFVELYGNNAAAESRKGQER
Sequence of BCL-2 (P10415 1-217 limits assumed): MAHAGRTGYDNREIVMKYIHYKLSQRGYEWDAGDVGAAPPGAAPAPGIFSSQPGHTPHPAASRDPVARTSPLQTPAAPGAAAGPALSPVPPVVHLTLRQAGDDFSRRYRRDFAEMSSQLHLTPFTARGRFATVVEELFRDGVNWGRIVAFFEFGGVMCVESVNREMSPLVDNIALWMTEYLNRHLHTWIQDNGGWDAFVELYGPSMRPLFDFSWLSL

Binder	Ki (BCL-XL) [nM]	Ki (BCL-2) [nM]	Ki (MCL-1) [nM]
Ac-WIAQALR[R8]IGDAFN[S5]YYA-NH2 (staple 8-15; SMILES CC[C@H](C)[C@H](NC(=O)[C@H](Cc1c[nH]c2ccccc12)NC(C)=O)C(=O)N[C@@H](C)C(=O)N[C@@H](CCC(N)=O)C(=O)N[C@@H](C)C(=O)N[C@@H](CC(C)C)C(=O)N[C@@H](CCCNC(=N)N)C(=O)N[C@]1(C)CCCCCCC=CCCC[C@@](C)(C(=O)N[C@@H](Cc2ccc(O)cc2)C(=O)N[C@@H](Cc2ccc(O)cc2)C(=O)N[C@@H](C)C(N)=O)NC(=O)[C@H](CC(N)=O)NC(=O)[C@H](Cc2ccccc2)NC(=O)[C@H](C)NC(=O)[C@H](CC(=O)O)NC(=O)CNC(=O)[C@H]([C@@H](C)CC)NC1=O, also called Ac-WIAQALR$r8IGDAFN$YYA-NH2) [SEQ ID NO: 1630]	213	424	
Ac-IWIAQA[hCha]R[R8]IGDAFN[S5]YYA-NH2 (staple 9-16; SMILES CC[C@H](C)[C@H](NC(C)=O)C(=O)N[C@@H](Cc1c[nH]c2ccccc12)C(=O)N[C@H](C(=O)N[C@@H](C)C(=O)N[C@@H](CCC(N)=O)C(=O)N[C@@H](C)C(=O)N[C@@H](CCC1CCCCC1)C(=O)N[C@@H](CCCNC(=N)N)C(=O)N[C@]1(C)CCCCCCC=CCCC[C@@](C)(C(=O)N[C@@H](Cc2ccc(O)cc2)C(=O)N[C@@H](Cc2ccc(O)cc2)C(=O)N[C@@H](C)C(N)=O)NC(=O)[C@H](CC(N)=O)NC(=O)[C@H](Cc2ccccc2)NC(=O)[C@H](C)NC(=O)[C@H](CC(=O)O)NC(=O)CNC(=O)[C@H]([C@@H](C)CC)NC1=O)[C@@H](C)CC, also called Ac-IWIAQAhChaR$r8IGDAFN$YYA-NH2) [SEQ ID NO: 1690]			3.8
Ac-IAQALR[R8]IGDAFN[S5]YYA-NH2 (staple 7-14; SMILES CC[C@H](C)[C@H](NC(C)=O)C(=O)N[C@@H](C)C(=O)N[C@@H](CCC(N)=O)C(=O)N[C@@H](C)C(=O)N[C@@H](CC(C)C)C(=O)N[C@@H](CCCNC(=N)N)C(=O)N[C@]1(C)CCCCCCC=CCCC[C@@](C)(C(=O)N[C@@H](Cc2ccc(O)cc2)C(=O)N[C@@H](Cc2ccc(O)cc2)C(=O)N[C@@H](C)C(N)=O)NC(=O)[C@H](CC(N)=O)NC(=O)[C@H](Cc2ccccc2)NC(=O)[C@H](C)NC(=O)[C@H](CC(=O)O)NC(=O)CNC(=O)[C@H]([C@@H](C)CC)NC1=O, also called Ac-IAQALR$r8IGDAFN$YYA-NH2) [SEQ ID NO: 1635]	309	519	
Ac-IAQALR[R8]IGDAFA[S5]YYA-NH2 (staple 7-14; SMILES CC[C@H](C)[C@H](NC(C)=O)C(=O)N[C@@H](C)C(=O)N[C@@H](CCC(N)=O)C(=O)N[C@@H](C)C(=O)N[C@@H](CC(C)C)C(=O)N[C@@H](CCCNC(=N)N)C(=O)N[C@]1(C)CCCCCCC=CCCC[C@@](C)(C(=O)N[C@@H](Cc2ccc(O)cc2)C(=O)N[C@@H](Cc2ccc(O)cc2)C(=O)N[C@@H](C)C(N)=O)NC(=O)[C@H](C)NC(=O)[C@H](Cc2ccccc2)NC(=O)[C@H](C)NC(=O)[C@H](CC(=O)O)NC(=O)CNC(=O)[C@H]([C@@H](C)CC)NC1=O, also called Ac-IAQALR$r8IGDAFA$YYA-NH2) [SEQ ID NO: 1631]	374	878	
Ac-IAAALR[R8]IGDAFN[S5]YYA-NH2 (staple 7-14; SMILES CC[C@H](C)[C@H](NC(C)=O)C(=O)N[C@@H](C)C(=O)N[C@@H](C)C(=O)N[C@@H](C)C(=O)N[C@@H](CC(C)C)C(=O)N[C@@H](CCCNC(=N)N)C(=O)N[C@]1(C)CCCCCCC=CCCC[C@@](C)(C(=O)N[C@@H](Cc2ccc(O)cc2)C(=O)N[C@@H](Cc2ccc(O)cc2)C(=O)N[C@@H](C)C(N)=O)NC(=O)[C@H](CC(N)=O)NC(=O)[C@H](Cc2ccccc2)NC(=O)[C@H](C)NC(=O)[C@H](CC(=O)O)NC(=O)CNC(=O)[C@H]([C@@H](C)CC)NC1=O, also called Ac-IAAALR$r8IGDAFN$YYA-NH2) [SEQ ID NO: 1636]	256	319	
Ac-IAQALR[R8]IADAFN[S5]YYA-NH2 (staple 7-14; SMILES CC[C@H](C)[C@H](NC(C)=O)C(=O)N[C@@H](C)C(=O)N[C@@H](CCC(N)=O)C(=O)N[C@@H](C)C(=O)N[C@@H](CC(C)C)C(=O)N[C@@H](CCCNC(=N)N)C(=O)N[C@]1(C)CCCCCCC=CCCC[C@@](C)(C(=O)N[C@@H](Cc2ccc(O)cc2)C(=O)N[C@@H](Cc2ccc(O)cc2)C(=O)N[C@@H](C)C(N)=O)NC(=O)[C@H](CC(N)=O)NC(=O)[C@H](Cc2ccccc2)NC(=O)[C@H](C)NC(=O)[C@H](CC(=O)O)NC(=O)[C@H](C)NC(=O)[C@H]([C@@H](C)CC)NC1=O, also called Ac-IAQALR$r8IADAFN$YYA-NH2) [SEQ ID NO: 1638]	243	272	
Ac-IAQALR[R8]IGDAFN[S5]AYA-NH2 (staple 7-14; SMILES CC[C@H](C)[C@H](NC(C)=O)C(=O)N[C@@H](C)C(=O)N[C@@H](CCC(N)=O)C(=O)N[C@@H](C)C(=O)N[C@@H](CC(C)C)C(=O)N[C@@H](CCCNC(=N)N)C(=O)N[C@]1(C)CCCCCCC=CCCC[C@@](C)(C(=O)N[C@@H](C)C(=O)N[C@@H](Cc2ccc(O)cc2)C(=O)N[C@@H](C)C(N)=O)NC(=O)[C@H](CC(N)=O)NC(=O)[C@H](Cc2ccccc2)NC(=O)[C@H](C)NC(=O)[C@H](CC(=O)O)NC(=O)CNC(=O)[C@H]([C@@H](C)CC)NC1=O, also called Ac-IAQALR$r8IGDAFN$AYA-NH2) [SEQ ID NO: 1640]	472	804	
IWIAQALXAIGDQFNAYYA (not fully specified; Ac- at N-terminus; -NH2 at C-terminus; $r8 at 9 and $ at 16 joined by all-carbon crosslinker; Cit (citrulline) at 8) [SEQ ID NO: 1656]	28.8	88.2	
Ac-IWIAQELR[R8]IGDEFN[S5]YYARR-NH2 (staple 9-16; SMILES CC[C@H](C)[C@H](NC(C)=O)C(=O)N[C@@H](Cc1c[nH]c2ccccc12)C(=O)N[C@H](C(=O)N[C@@H](C)C(=O)N[C@@H](CCC(N)=O)C(=O)N[C@@H](CCC(=O)O)C(=O)N[C@@H](CC(C)C)C(=O)N[C@@H](CCCNC(=N)N)C(=O)N[C@]1(C)CCCCCCC=CCCC[C@@](C)(C(=O)N[C@@H](Cc2ccc(O)cc2)C(=O)N[C@@H](Cc2ccc(O)cc2)C(=O)N[C@@H](C)C(=O)N[C@@H](CCCNC(=N)N)C(=O)N[C@@H](CCCNC(=N)N)C(N)=O)NC(=O)[C@H](CC(N)=O)NC(=O)[C@H](Cc2ccccc2)NC(=O)[C@H](CCC(=O)O)NC(=O)[C@H](CC(=O)O)NC(=O)CNC(=O)[C@H]([C@@H](C)CC)NC1=O)[C@@H](C)CC) [SEQ ID NO: 1629]	9.2	23.5	

Next, values leading:

Ki (BCL-XL) [nM]	Ki (BCL-2) [nM]	Ki (MCL-1) [nM]	Binder
15.5			Ac-IWIAQALR[R8]IG[αMeD]AFN[S5]YYA-NH2 (staple 9-16; SMILES CC[C@H](C)[C@H](NC(C)=O)C(=O)N[C@@H](Cc1c[nH]c2ccccc12)C(=O)N[C@H](C(=O)N[C@@H](C)C(=O)N[C@@H](CCC(N)=O)C(=O)N[C@@H](C)C(=O)N[C@@H](CC(C)C)C(=O)N[C@@H](CCCNC(=N)N)C(=O)N[C@]1(C)CCCCCCC=CCCC[C@@](C)(C(=O)N[C@@H](Cc2ccc(O)cc2)C(=O)N[C@@H](Cc2ccc(O)cc2)C(=O)N[C@@H](C)C(N)=O)NC(=O)[C@H](CC(N)=O)NC(=O)[C@H](Cc2ccccc2)NC(=O)[C@H](C)NC(=O)[C@](C)(CC(=O)O)NC(=O)CNC(=O)[C@H]([C@@H](C)CC)NC1=O)[C@@H](C)CC) [SEQ ID NO: 1709]
386		73.8	Ac-IWIAQALA[R8]IGDAFN[S5]YYA-NH2 (staple 9-16; SMILES CC[C@H](C)[C@H](NC(C)=O)C(=O)N[C@@H](Cc1c[nH]c2ccccc12)C(=O)N[C@H](C(=O)N[C@@H](C)C(=O)N[C@@H](CCC(N)=O)C(=O)N[C@@H](C)C(=O)N[C@@H](CC(C)C)C(=O)N[C@@H](C)C(=O)N[C@]1(C)CCCCCCC=CCCC[C@@](C)(C(=O)N[C@@H](Cc2ccc(O)cc2)C(=O)N[C@@H](Cc2ccc(O)cc2)C(=O)N[C@@H](C)C(N)=O)NC(=O)[C@H](CC(N)=O)NC(=O)[C@H](Cc2ccccc2)NC(=O)[C@H](C)NC(=O)[C@H](CC(=O)O)NC(=O)CNC(=O)[C@H]([C@@H](C)CC)NC1=O)[C@@H](C)CC) [SEQ ID NO: 1673]
		7.5	Ac-IWIAQA[hPhe]R[R8]IGDAFN[S5]YYA-NH2 (staple 9-16; SMILES CC[C@H](C)[C@H](NC(C)=O)C(=O)N[C@@H](Cc1c[nH]c2ccccc12)C(=O)N[C@H](C(=O)N[C@@H](C)C(=O)N[C@@H](CCC(N)=O)C(=O)N[C@@H](C)C(=O)N[C@@H](CCc1ccccc1)C(=O)N[C@@H](CCCNC(=N)N)C(=O)N[C@]1(C)CCCCCCC=CCCC[C@@](C)(C(=O)N[C@@H](Cc2ccc(O)cc2)C(=O)N[C@@H](Cc2ccc(O)cc2)C(=O)N[C@@H](C)C(N)=O)NC(=O)[C@H](CC(N)=O)NC(=O)[C@H](Cc2ccccc2)NC(=O)[C@H](C)NC(=O)[C@H](CC(=O)O)NC(=O)CNC(=O)[C@H]([C@@H](C)CC)NC1=O)[C@@H](C)CC, also called Ac-IWIAQAhFR$r8IGDAFN$YYA-NH2) [SEQ ID NO: 1692]
136	231		Ac-IWIAQA[hhL]R[R8]IGDAFN[S5]YYA-NH2 (staple 9-16, also called Ac-IWIAQAhhLR$r8IGDAFN$YYA-NH2) [SEQ ID NO: 1688]
	410		Ac-WIAQALR[R8]IGDAFN[S5]YYA-NH2 (staple 8-15; SMILES CC[C@H](C)[C@H](NC(=O)[C@H](Cc1c[nH]c2ccccc12)NC(C)=O)C(=O)N[C@@H](C)C(=O)N[C@@H](CCC(N)=O)C(=O)N[C@@H](C)C(=O)N[C@@H](CC(C)C)C(=O)N[C@@H](CCCNC(=N)N)C(=O)N[C@]1(C)CCCCCCC=CCCC[C@@](C)(C(=O)N[C@@H](Cc2ccc(O)cc2)C(=O)N[C@@H](Cc2ccc(O)cc2)C(=O)N[C@@H](C)C(N)=O)NC(=O)[C@H](CC(N)=O)NC(=O)[C@H](Cc2ccccc2)NC(=O)[C@H](C)NC(=O)[C@H](CC(=O)O)NC(=O)CNC(=O)[C@H]([C@@H](C)CC)NC1=O, also called Ac-WIAQALR$r8IGDAFN$YYA-NH2) [SEQ ID NO: 1634]

From patent US20180273587A1 (AILERON THERAPEUTICS, published 2018)
